Laboratory results taken from patent US12564623B2, “Methods and compositions for treating cancer” (The University of Chicago, priority 2017, dated 2026).
Ends that are not written are not given here.

Columns and labels:
MDA-MB-231 cells [1] = assay: ELANE inactivation by PMSF or A1AT and killing assay; type: cell-based, human; conditions: irreversible non-competitive ELANE inhibitors
Experimental: (FIG. 5A) Purified native ELANE or PMN media was treated with PMSF (100 nM) or alpha-1-anti-trypsin (A1AT; 42 nM) for 30 mins and loss of ELANE catalytic activity was confirmed by a chromogenic substrate assay. Killing assays were performed by treating MDA-MB-231 cells for 24 hrs treatment and assessed by Calcein AM staining. (FIG. 5B) ELANE activity in PMN media was measured by a chromogenic substrate activity assay, and PMN killing was measured by Calcein AM staining on MDA-MB-231 cells exposed to PMN media for 4h.

ELANE [2] = conditions: specific ELANE inhibitors; cited from earlier work
[3] = system: E0771, B16F10, or LLC1 cancer cells; assay: Tumor growth after intratumoral delivery, syngeneic models; type: in vivo, C57BL/6 mice; conditions: 11.6 μg intratumorally once/day for 5 days
Experimental: ELANE activity is required for its anti-tumor function in vivo. (FIG. 14A) Catalytic activity of ELANE or ELANE that had been inactivated by treatment with 100 nM PMSF (PMSF-ELANE) was determined by a chromogenic substrate. (FIG. 14B) E0771, B16F10, or LLC1 cancer cells were injected into C57BL/6 mice. Once tumors reached ˜100 mm^3, human serum albumin (HSA, 11.6 μg), ELANE (11.6 μg), or PMSF-ELANE (11.6 μg) were delivered intratumorally once/day for 5 days. Tumor volume was assessed by calipers.

ELANE [4] = biological target: T1, ELANE (Homo sapiens, UniProt P08246); assay: Anti-ELANE magnetic bead pull-down from neutrophil conditioned media, western blotting; type: binding; conditions: anti-ELANE antibody beads
T1 construct: incubated the neutrophil conditioned media with magnetic beads coupled to an anti-ELANE antibody; endogenous in cells; host or cells: human peripheral blood neutrophils from healthy donors (conditioned media)
T1 sequence (P08246 30-267): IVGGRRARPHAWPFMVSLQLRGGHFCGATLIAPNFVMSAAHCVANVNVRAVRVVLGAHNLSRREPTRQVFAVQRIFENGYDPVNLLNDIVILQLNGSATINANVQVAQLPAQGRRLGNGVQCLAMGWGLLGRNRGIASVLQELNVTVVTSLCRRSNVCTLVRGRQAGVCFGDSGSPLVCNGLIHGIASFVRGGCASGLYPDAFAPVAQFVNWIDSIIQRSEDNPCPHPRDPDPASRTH
From the text: Identification of ECP, ELANE, ANXA6, DEFA1, and CASP3 as candidate cancer cell killing proteins in the neutrophil conditioned media. Neutrophil conditioned media was obtained from 2 different donors (Donor 1 and Donor 2). […] To determine the identity of the proteins depleted by the 0.2 μm sterile filter, the inventors performed quantitative proteomics analysis on the conditioned media from each donor pre- and post-filter. Proteomics analysis identified 2000 proteins, 4 of which (ECP, ELANE, ANXA6, and DEFA1) were depleted in samples from both donors (G-test, p<0.05). The inventors explored the possibility that these proteins might interact with or complement one another. This hypothesis was tested using two approaches. First, the inventors incubated the neutrophil conditioned media with magnetic beads coupled to an anti-ELANE antibody and analyzed the supernatant (sup), wash, and eluent (elute) by western blotting.

ELANE [5] = biological target: T1, ELANE; assay: ELANE catalytic activity with increasing ECP, chromogenic substrate activity assay; type: biochemical; conditions: ECP as type 2 allosteric activator
Experimental: (§1) FIG. 7A-D. ECP is a type II allosteric activator of ELANE catalytic activity. (a) 10 nM ELANE was incubated with increasing ECP concentrations at various substrate concentrations. Catalytic activity was measured by a chromogenic substrate activity assay. (b) Km (app) and Vmax (app) values were obtained by fitting curves to Michaelis-Menten equations (lines). (c) Km (app) versus ECP concentration. (d) Vmax (app) versus ECP concentration. ELANE was immunoprecipitated from human PMN media and samples were probed with anti-ELANE and anti-ECP antibodies. Orig=PMN media, Sup=flow-though, Wash=bead wash, Elute=bound to anti-ELANE antibody.
as §1, with “ECP” for “FIG. 7A-D. ECP”, “(FIG. 7A)” for “(a)”, “(FIG. 7B)” for “(b)”, “(FIG. 7C)” for “(c)”, “(FIG. 7D)” for “(d)”

[6] = system: human monocyte-derived macrophages (HMDMs); type: cell-based
Experimental: Human peripheral blood neutrophils were isolated from healthy donors. Cells were plated in serum-free DMEM and the neutrophil conditioned media (Neu CM) was collected for 24h. […] High doses of ECP or ELANE can kill cancer cells. The inventors sought to determine whether adding purified human ECP (Lee Biosolutions), human ELANE (Abcam), human DEFA1 (Abcam), human ANXA6 (R&D Systems) or human CASP3 (Abcam) individually could kill cancer cells without killing non-cancer cells. Increasing doses of each protein were added to MDA-MB-231 cells for 5h or human monocyte-derived macrophages (HMDMs) for 24 h and cell viability was determined by Calcein-AM. […] ELANE and ECP synergize to selectively kill cancer cells. MDA-MB-231 and human monocyte-derived macrophages (HMDMs) were treated with levels of ELANE (0.25 μg/mL) or ECP (0.05 μg/mL) that were present in the PMN media, alone or in combination for 24 hrs. killing was examined by Calcein AM staining.

MDA-MB-231 cells [7] = assay: Cancer cell killing, Calcein AM staining; type: cell-based, human; conditions: increasing doses, 5h
Experimental: Approach to identify the factor(s) mediating selective killing. A quantitative cancer cell killing assay was developed to track the bioactive factor(s). MDA-MB-231 cells were treated with various doses of PMN media and cell viability was assessed by Calcein AM live cells fluorescence staining. […] (FIG. 3B) PMN media was passed through a 0.22 μm filter, and protein concentration and killing activity on MDA-MB-231 cancer cells was measured in both pre- and post-filter solutions. […] ELANE and ECP levels in PMN media pre- and post-filtration were quantified by mass spectrometry (spectral counts).
To determine if ELANE and/or ECP were responsible, the inventors (1) immuno-depleted ELANE or ECP from PMN media; (2) treated cancer or normal cells with purified native ELANE or ECP from commercial sources. (FIG. 6A) ELANE or ECP were depleted from PMN media by immunoprecipitation; depletion was confirmed by western blotting. PMN media pre-depletion=Orig. and post-depletion=FT. Non-specific IgG was used as a control. (FIG. 6B) MDA-MB-231 cells or human monocyte-derived macrophages (HMDMs) were treated with purified native ELANE or ECP at various doses for 24h, and killing was assessed by Calcein AM staining. (FIG. 6C) MDA-MB-231 cells and HMDMs were treated with levels of ELANE (0.25 μg/mL) or ECP (0.05 μg/mL) that were present in the PMN media, alone or in combination for 24 hrs, and killing was examined by Calcein AM staining.
High doses of ECP or ELANE can kill cancer cells. The inventors sought to determine whether adding purified human ECP (Lee Biosolutions), human ELANE (Abcam), human DEFA1 (Abcam), human ANXA6 (R&D Systems) or human CASP3 (Abcam) individually could kill cancer cells without killing non-cancer cells. Increasing doses of each protein were added to MDA-MB-231 cells for 5h or human monocyte-derived macrophages (HMDMs) for 24 h and cell viability was determined by Calcein-AM.
ELANE and ECP synergize to selectively kill cancer cells. MDA-MB-231 and human monocyte-derived macrophages (HMDMs) were treated with levels of ELANE (0.25 μg/mL) or ECP (0.05 μg/mL) that were present in the PMN media, alone or in combination for 24 hrs. killing was examined by Calcein AM staining.
Combining chemotherapeutics and neutrophil conditioned media enhances the killing of human triple negative breast cancer cells. MDA-MB-231 cells were treated with neutrophil conditioned media (Neu-CM; 4 μg/mL), doxorubicin (DOX; 0.3 μM), or paclitaxel (PTX; 3 nM) for 4h, individually or in combination, and cell viability was assessed by Calcein-AM.
Other serine proteases cleave the C-terminal domain of CD95, and the ability to cleave the C-terminal domain is associated with cancer cell killing. (FIG. 12A) Full length recombinanat CD95 protein was incubated with various serine proteases (human ELANE (80 nM), PR3 (80 nM), CSTG (80 nM), PPE (80 nM), mouse ELANE (80 nM), rat ELANE (500 nM), GZMB (80 nM), or Trypsin (250 nM)), or other types of proteases (CTSC (80 nM); or MMP7 (80 nM), MMP9 (80 nM), CTSD (80 nM) not shown) at 37° C. for 2 hours. Degradation was assessed by SDS-PAGE followed by coomassie blue staining. (FIG. 12B) MDA-MB-231 cancer cells were incubated with various proteases for 24 hrs. Cell viability was assessed by Calcein AM staining.
(FIG. 13A) MDA-MB-231 cancer cells were treated with various doses of purified native ELANE or purified native porcine pancreatic elastase (PPE) for 6 h, and killing was assessed by Calcein AM staining. (FIG. 13B). Purified native ELANE or purified native PPE was incubated with different concentrations of alpha-1-anti-trypsin (A1AT) for 15 mins. Catalytic activity was measured using a chromogenic substrate assay. Cancer cell killing capability was determined by treating MDA-MB-231 cancer cells with ELANE or PPE in the presence or absence of A1AT for 6h, followed by Calcein AM staining. (FIG. 13C) Catalytic activity was measured using a chromogenic substrate assay. […]

## O=S(=O)(F)Cc1ccccc1 [PMSF]
MDA-MB-231 cells [1]
  effect on cancer cell apoptosis of treating ELANE or neutrophil conditioned media with inhibitor: protects cancer cells from apoptosis

## elafin (AQEPVKGPVSTKPGSCPIILIRCAMLNPPNRCLKDTDCPGIKKCCEGSCGMACFVPQ; ends and bridges not checked; cysteine pairing not given here; UniProt P19957 61-117, looked up)
ELANE [2]
  growth of transplanted cancer cells: suppress growth of cancer cells transplanted into severe combined immunodeficiency mice

## CC(C)(C)C(=O)Oc1ccc(S(=O)(=O)Nc2ccccc2C(=O)NCC(=O)O)cc1 [sivelestat]
ELANE [2]
  growth of transplanted cancer cells: suppress growth of cancer cells transplanted into severe combined immunodeficiency mice

## alpha-1-antitrypsin
MDA-MB-231 cells [1]
  effect on cancer cell apoptosis of treating ELANE or neutrophil conditioned media with inhibitor: protects cancer cells from apoptosis

B1: PMSF-ELANE: ELANE that had been inactivated by treatment with PMSF (protein, UniProt P08246 30-267, looked up)
Neutrophil elastase: IVGGRRARPHAWPFMVSLQLRGGHFCGATLIAPNFVMSAAHCVANVNVRAVRVVLGAHNLSRREPTRQVFAVQRIFENGYDPVNLLNDIVILQLNGSATINANVQVAQLPAQGRRLGNGVQCLAMGWGLLGRNRGIASVLQELNVTVVTSLCRRSNVCTLVRGRQAGVCFGDSGSPLVCNGLIHGIASFVRGGCASGLYPDAFAPVAQFVNWIDSIIQRSEDNPCPHPRDPDPASRTH
modifications: PMSF-inactivated
[3]
  tumor growth: no effect on tumor growth

B2: eosinophil cationic protein (protein, listed as Homo sapiens)
chain: MVPKLFTSQICLLLLLGLMGVEGSLHARPPQFTRAQWFAIQHISLNPPRCTIAMRAINNYRWRCKNQNTFLRTTFANVVNVCGNQSIRCPHNRTLNNCHRSRFRVPLLHCDLINPGAQNISNCTYADRPGRRFYVVACDNRDPRDSPRYPVVPVHLDTTI
ELANE [4]
  binding to ELANE: ELANE-binding proteins
ELANE [5]
  effect on KM of ELANE: without altering KM
  increase of kcat of ELANE for its substrate: 12 fold
[6]
  toxicity to human monocyte-derived macrophages: showed toxicity
MDA-MB-231 cells [7]
  cancer cell killing activity of purified protein: highest cancer cell killing activity
